Key:
Test in all cases: flow cytometry, HEK293 cells transiently co-transfected with FZD expression vector and GFP
[1] = molecular target: T1, human FZD4 expressed on transfected HEK293 cells (human, UniProt Q9ULV1 37-537)
T1 sequence: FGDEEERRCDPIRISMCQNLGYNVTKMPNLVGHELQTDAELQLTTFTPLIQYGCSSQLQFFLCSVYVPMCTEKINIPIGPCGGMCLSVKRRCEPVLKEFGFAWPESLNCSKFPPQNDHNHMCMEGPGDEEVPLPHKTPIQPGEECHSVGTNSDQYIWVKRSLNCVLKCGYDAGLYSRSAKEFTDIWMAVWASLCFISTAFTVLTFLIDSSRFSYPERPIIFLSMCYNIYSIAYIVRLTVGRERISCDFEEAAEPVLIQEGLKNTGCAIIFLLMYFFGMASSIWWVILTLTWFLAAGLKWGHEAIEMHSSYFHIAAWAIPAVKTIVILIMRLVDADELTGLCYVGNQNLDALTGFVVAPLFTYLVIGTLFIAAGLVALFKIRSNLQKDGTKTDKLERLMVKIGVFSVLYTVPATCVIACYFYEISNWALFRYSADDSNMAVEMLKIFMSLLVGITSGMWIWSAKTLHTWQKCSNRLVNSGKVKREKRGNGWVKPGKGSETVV
Procedure: (§1) To measure antibody binding to FZD by flow cytometry HEK293 cells were co-transfected with FZD expression vectors and the transfection marker GFP. Twenty-four to forty-eight hours post-transfection, cells were collected in suspension and incubated on ice with anti-FZD antibodies (10 μg/ml unless otherwise indicated) or control IgG to detect background antibody binding. The cells were washed and primary antibodies detected with Fc domain-specific secondary antibodies conjugated to a fluorescent chromophore (e.g. phycoerythrin conjugated anti-human IgG). Labeled cells were then analyzed by flow cytometry to identify anti-FZD antibodies that specifically recognize cell surface expression of FZD protein. Monoclonal antibodies 18R5 and 18R8 recognized FZD on transfected cells. As shown in FIG. 1 and FIG. 2, both 18R8 and 18R5 bind to multiple FZD including FZD1, FZD2, FZD5, FZD7, and FZD8. To examine the relative ability of 18R8 and 18R5 to bind to each FZD protein, titration analysis was conducted wherein the amount of antibody in the binding reaction was varied (FIG. 2).

[2] = molecular target: T2, human FZD9 expressed on transfected HEK293 cells (human, UniProt O00144 23-591)
T2 sequence: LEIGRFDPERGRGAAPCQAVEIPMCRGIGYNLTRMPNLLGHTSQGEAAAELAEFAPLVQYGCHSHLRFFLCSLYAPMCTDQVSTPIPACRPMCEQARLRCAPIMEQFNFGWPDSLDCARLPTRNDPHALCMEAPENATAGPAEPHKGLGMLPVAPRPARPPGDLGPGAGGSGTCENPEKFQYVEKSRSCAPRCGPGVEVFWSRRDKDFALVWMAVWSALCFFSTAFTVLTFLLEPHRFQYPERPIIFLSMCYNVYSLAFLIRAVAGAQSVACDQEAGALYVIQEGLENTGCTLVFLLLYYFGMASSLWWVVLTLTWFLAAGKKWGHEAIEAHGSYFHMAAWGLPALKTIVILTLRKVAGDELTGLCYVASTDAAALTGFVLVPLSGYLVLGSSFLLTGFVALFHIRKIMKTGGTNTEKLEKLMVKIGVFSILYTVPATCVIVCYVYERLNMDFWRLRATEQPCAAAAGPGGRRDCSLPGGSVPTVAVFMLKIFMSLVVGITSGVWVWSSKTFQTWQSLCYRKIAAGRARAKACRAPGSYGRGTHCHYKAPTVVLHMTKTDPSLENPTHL
Procedure: as §1

[3] = molecular target: T3, human FZD10 expressed on transfected HEK293 cells (human, UniProt Q9ULW2 21-581)
T3 sequence: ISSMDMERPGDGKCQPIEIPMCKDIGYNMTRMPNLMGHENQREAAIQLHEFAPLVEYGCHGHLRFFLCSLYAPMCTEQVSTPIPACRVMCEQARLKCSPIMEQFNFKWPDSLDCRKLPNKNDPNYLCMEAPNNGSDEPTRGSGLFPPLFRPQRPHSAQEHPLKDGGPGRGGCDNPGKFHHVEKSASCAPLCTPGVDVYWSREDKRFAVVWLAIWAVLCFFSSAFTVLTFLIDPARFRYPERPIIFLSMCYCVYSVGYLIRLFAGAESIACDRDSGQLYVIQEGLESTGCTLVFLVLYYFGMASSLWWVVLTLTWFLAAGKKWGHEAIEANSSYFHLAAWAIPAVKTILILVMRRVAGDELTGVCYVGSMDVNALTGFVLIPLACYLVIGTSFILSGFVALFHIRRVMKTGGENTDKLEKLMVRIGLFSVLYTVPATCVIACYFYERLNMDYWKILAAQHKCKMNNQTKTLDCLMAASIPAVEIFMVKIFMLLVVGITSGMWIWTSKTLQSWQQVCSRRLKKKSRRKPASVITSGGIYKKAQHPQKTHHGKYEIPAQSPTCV
Procedure: as §1

Measured: binding result

B1: 18R8 IgG antibody (human IgG2, lambda) (antibody, V domains shown)
VH: EVQLVESGGGLVQPGGSLRLSCAASGFTFSHYTLSWVRQAPGKGLEWVSVISGDGSYTYYADSVKGRFTISSDNSKNTLYLQMNSLRAEDTAVYYCARNFIKYVFANWGQGTLVTVSS
VL: DIELTQPPSVSVAPGQTARISCSGDKLGKKYASWYQQKPGQAPVLVIYEKDNRPSGIPERFSGSNSGNTATLTISGTQAEDEADYYCSSFAGNSLEVFGGGTKLTVLG
notes: Expressed in CHO cells, protein A purified; also called 18R8 IgG2 antibody; anti-FZD antibody 18R8
no binding (tested: 10 ug/ml): all assays above

From patent US20130295106A1 (ONCOMED PHARMACEUTICALS, published 2013)
